From patent US20170189508A1 (IMMATICS BIOTECHNOLOGIES, published 2017)
Like-named read-outs stand apart in the source and are kept apart here.

Legend:
[1] = biological target: HLA-A*02 (human)
[2] = biological target: HLA-A*02 (human); experiment: as the table's title states

Row | Binder | binding result [1] | binding result [2]
1 | KLQNIMMLL [KLQNIMMLL (SEQ ID NO: 230)] | binds | –
2 | RLMEENWNA [RLMEENWNA (SEQ ID NO: 27)] | – | binds

Results, then the binder that gave them:

Row | binding result [1] | binding result [2] | Binder
3 | binds | – | KIIDFLSAL [KIIDFLSAL (SEQ ID NO: 235)]
4 | binds | – | AILAHLNTV [AILAHLNTV (SEQ ID NO: 229)]
